Patent US20230174651A1 (Janssen / Centocor, published 2023)

B1: CD8B613 (antibody, human IgG1, kappa)
heavy: not shown
light: DVQMIQSPLSLPVSLGDQASISCRSSQNIVHSNGNTYLEWYLQKPGQSPKLLIYRVSKRFSGVPDRFSGSGSGTDFTLKITRVEAEDLGVYYCFQGSHVPWTFGGGTKLEIKRTVAAPSVFIFPPSDEQLKSGTASVVCLLNNFYPREAKVQWKVDNALQSGNSQESVTEQDSKDSTYSLSSTLTLSKADYEKHKVYACEVTHQGLSSPVTKSFNRGEC
notes: Mouse variable regions on human IgG1 / human kappa constant regions
B2: CD8B622 (antibody, human IgG1, kappa)
heavy: not shown
light: DIVMTQTPLSLPVSLGDQASISCRSSQNIVHSNGNTYLEWYLQKPGQSPKLLIYRVSKRFSGVPDRFSGSGSGTDFTLKITRVEAEDLGVYYCFQGSHVPWTFGGGTKLEIKRTVAAPSVFIFPPSDEQLKSGTASVVCLLNNFYPREAKVQWKVDNALQSGNSQESVTEQDSKDSTYSLSSTLTLSKADYEKHKVYACEVTHQGLSSPVTKSFNRGEC
notes: Mouse variable regions on human IgG1 / human kappa constant regions; also called CD8B622.001
B3: CD8B623 (antibody, human IgG1, kappa)
heavy: not shown
light: DVVMTQTPLSLPVSLGDQASISCRSSQNIVHSNGNTYLEWYLQKPGQSPKLLIYRVSKRFSGVPDRFSGSGSGTDFTLKITRVEAEDLGVYYCFQGSHVPWTFGGGTKLEIKRTVAAPSVFIFPPSDEQLKSGTASVVCLLNNFYPREAKVQWKVDNALQSGNSQESVTEQDSKDSTYSLSSTLTLSKADYEKHKVYACEVTHQGLSSPVTKSFNRGEC
notes: as for B1
B4: CD8B617 (antibody, human IgG1, kappa)
heavy: not shown
light: DIQMTQSPLTLSVTIGQPASISCKSSQSLLDSDGETYLNWLLQRPGQSPKRLIYLVSKLDSGVPDRFTGSGSGTDFTLKISRVEAEDLGVYYCWQGTHFPLTFGGGTKLEIKRTVAAPSVFIFPPSDEQLKSGTASVVCLLNNFYPREAKVQWKVDNALQSGNSQESVTEQDSKDSTYSLSSTLTLSKADYEKHKVYACEVTHQGLSSPVTKSFNRGEC
notes: as for B1
B5: CD8B607 (antibody, human IgG1, kappa)
heavy: not shown
light: DIQMTQTPLTLSVTIGQPASISCKSSQSLLDSDGETYLNWLLQRPGQSPKRLIYLVSKLDSGVPDRFTGSGSGTDFTLKISRVEAEDLGVYYCWQGTHFPLTFGGGTKLEIKRTVAAPSVFIFPPSDEQLKSGTASVVCLLNNFYPREAKVQWKVDNALQSGNSQESVTEQDSKDSTYSLSSTLTLSKADYEKHKVYACEVTHQGLSSPVTKSFNRGEC
notes: as for B1
B6: CD8B611 (antibody, human IgG1, kappa, V domains shown)
VH: EVQLQQSGAELVRPGASVNLSCTASGFNFKDDYMHWVKQRPEQGLEWIGWIDPENGDAAYASKFQGKATITADTSSNTAYLQLSSLTSEDTAVYYCITIFRSYWGQGTTLTVSS
VL: not shown
notes: as for B1
B7: CD8B575 (antibody, human IgG1, kappa, V domains shown)
VH: QVQLQQSGGGLVQPGGSLKLSCAASGFTFSNYYMSWARQTPEKRLEWVAYISNDGDATYYPDSVKGRFTISRDNAKNTLYLQMSSLKSEDTAMYYCTREDYYSDYWFASWGQGTTVTVSS
VL: DIVMTQSQKFMSTTIEDRVSITCKASQNVGTAVAWYQQKPGQSPKLLIYSTSNRYTGVPDRFTGSGSGTDFTLTISNIQSEDLADYFCQQYSSYPLTFGGGTKLEIKR
notes: Mouse variable regions on human IgG1 / human kappa constant regions, made in CHO cells; also called AF647-CD8B575

Columns and labels:
[1] = target: T1, human CD8α on primary CD8+ T cells (human, UniProt P01732 22-235); experiment: flow cytometry on PBMC, 2 µg/mL mAb, positive cells among EM CD8 T cells, Donor 1
T1 construct: Endogenous CD8 on T cells from PBMC; also called CD8+ primary T cells; human primary CD8+ cells
T1 sequence (P01732 22-235): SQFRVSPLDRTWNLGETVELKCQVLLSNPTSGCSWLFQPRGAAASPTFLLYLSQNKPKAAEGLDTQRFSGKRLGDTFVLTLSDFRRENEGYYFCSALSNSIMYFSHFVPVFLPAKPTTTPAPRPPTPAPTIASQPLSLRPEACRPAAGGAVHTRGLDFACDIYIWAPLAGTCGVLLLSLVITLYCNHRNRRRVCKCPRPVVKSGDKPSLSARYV
Experimental: (§1) Frozen PBMCs were thawed and resuspended in FACS buffer (PBS+2% FBS). Cells were then incubated with Fc block for 15 min at 4 C prior to incubation with 2 μg/mL of each CD8α hinge binders at room temperature for 45 min. […] After staining, cells were washed with FACS buffer twice and resuspended in 100 μl PBS containing DAPI for acquisition. Cells were first gated on FSC/SSC, followed by live cell gating (DAPI negative cells) followed by singlet gating. CD3 T cells were identified using FSC versus CD3 dot plot. Within the CD3 T cells, CD4 and CD8 T cells were gated. Naïve, Effector, EM and CM cells were identified within the CD8 T cells using CD45RA and CD27 dot plot. Within each of the cell types, the secondary only control was used to set the gates to identify the positive stained population. The percentage of positive cells in CD8+ T cell population with binding to CD8α hinge binders were quantified and summarized in Table 13.

[2] = target: T1, human CD8α on primary CD8+ T cells; experiment: flow cytometry on PBMC, 2 µg/mL mAb, positive cells among EMRA CD8 T cells, Donor 2
Experimental: as §1

[3] = target: T1, human CD8α on primary CD8+ T cells; experiment: flow cytometry on PBMC, 2 µg/mL mAb, positive cells among CD8+ T cells, Donor 2
Experimental: as §1

[4] = target: T2, CAR with CD8α hinge as the spacer, expressed on Jurkat CAR-T cells; experiment: flow cytometry (iQue) on Jurkat CAR-T cells, A647 anti-human IgG Fc detection
T2 construct: domain: CD8α hinge; also called CD8α hinge expressed on the Jurkat CAR-T cells
T2 sequence (P01732 138-182): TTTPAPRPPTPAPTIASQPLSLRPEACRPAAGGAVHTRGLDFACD
Experimental: mAbs were 1:3 serially diluted ranging from 100 nM to 1.7 pM and were incubated with cell mixture containing Jurkat CAR-T cells (unstained), Jurkat cells (CTV dye stained) and Sup-T1 cells (CSFE dye stained) in assay media (RPMI 1640+10% HI FBS+Pen/strep) for 1 hr at 37° C. […] Cells were then washed and analyzed by iQue screener (Intellicyt®). ForeCyt software was used for data analysis. The ratio of geomean of AF647 fluorescent signal from sample over the isotype control antibody (Signal) was used for the dose-dependent plot (FIGS. 2A-2F).

[5] = target: T1, human CD8α on primary CD8+ T cells; experiment: flow cytometry on PBMC, 2 µg/mL mAb, positive cells among EM CD8 T cells, Donor 2
Experimental: as §1

[6] = target: T1, human CD8α on primary CD8+ T cells; experiment: flow cytometry on PBMC, 2 µg/mL mAb, positive cells among CD8+ T cells, Donor 1
Experimental: as §1

[7] = target: T1, human CD8α on primary CD8+ T cells; experiment: flow cytometry on PBMC, 2 µg/mL mAb, positive cells among EMRA CD8 T cells, Donor 1
Experimental: as §1

[8] = target: T3, soluble CAR extracellular domain (ECD) containing scFv and CD8α hinge (UniProt P01732 138-182, biotinylated); experiment: BLI (OctetRed384), GC5W48-Btn loaded on streptavidin tip; row 'average'; the sheet puts this number under 'kon (1/Ms)', Table 14 of the text under 'kd (1/s)'
T3 construct: domain: CD8α hinge; also called soluble CAR ECD; CAR ECD
T3 sequence (P01732 138-182): as above
Experimental: (§2) To determine the binding affinity and kinetics of mAbs to CD8α hinge, soluble CAR extracellular domains (ECD) containing scFv and CD8α hinge was generated for Bio-layer interferometry (BLI) analysis using OctetRed384 (Sartorius). The CAR ECD was biotinylated and loaded to streptavidin sensor tip. Then mAbs were associated to the sensor and followed by disassociation in the assay buffer. Data was analyzed by Octet software (Sartorius).

[9] = target: T3, soluble CAR extracellular domain (ECD) …; experiment: BLI (OctetRed384), GC5W48-Btn loaded on streptavidin tip; row 'average'; the sheet puts this number under 'kdis (1/s)', Table 14 of the text under 'KD (M)'
Experimental: as §2

[10] = target: T3, soluble CAR extracellular domain (ECD) …; experiment: BLI (OctetRed384), GC5W48-Btn (biotinylated CAR ECD) loaded on streptavidin tip, mAb in solution; first of two table rows
Experimental: as §2

[11] = target: T3, soluble CAR extracellular domain (ECD) …; experiment: BLI (OctetRed384), GC5W48-Btn (biotinylated CAR ECD) loaded on streptavidin tip, mAb in solution; second of two table rows
Experimental: as §2

[12] = target: T3, soluble CAR extracellular domain (ECD) …; experiment: BLI (OctetRed384), GC5W48-Btn (biotinylated CAR ECD) loaded on streptavidin tip, mAb in solution; second of two table rows; column head 'kdis (1/s)'
Experimental: as §2

[13] = target: T3, soluble CAR extracellular domain (ECD) …; experiment: BLI (OctetRed384), biotinylated CAR ECD on streptavidin tips; the cell stands under the head 'kd (1/s)' (heads shifted)
Experimental: as §2

[14] = target: T3, soluble CAR extracellular domain (ECD) …; experiment: BLI (OctetRed384), biotinylated CAR ECD on streptavidin tips; the cell stands under the head 'ka (1/Ms)' but the text gives 1.83 nM as the affinity (heads shifted)
Experimental: as §2

[15] = target: T3, soluble CAR extracellular domain (ECD) …; experiment: BLI (OctetRed384), biotinylated CAR ECD on streptavidin tips; the cell stands under the head 'KD (M)' (heads shifted)
Experimental: as §2

[16] = target: T3, soluble CAR extracellular domain (ECD) …; experiment: BLI (OctetRed384), GC5W48-Btn (biotinylated CAR ECD) loaded on streptavidin tip, mAb in solution; first of two table rows; column head 'kdis (1/s)'
Experimental: as §2

Binder | Binding+ in EM (%) [1] | Binding+ in EMRA (%) [2] | Binding in CD8+ cells (%) [3] | EC50 [4] | Binding+ in EM (%) [5] | Binding in CD8+ cells (%) [6] | Binding+ in EMRA (%) [7] | kon [8] | koff [9] | Kd [10] | kon [10] | Kd [11] | kon [11] | koff [12] | kon [13] | Kd [14] | koff [15] | koff [16]
B1 | 70.5% | 8.76% | 28.1% | 1.9 nM | 75.9% | 73.8% | 72% |  |  |  |  |  |  |  |  |  |  | 
B2 | 50.4% | 4.25% | 16.7% | 37 nM | 50.3% | 63.1% | 60.6% |  |  |  |  |  |  |  |  |  |  | 
B3 | 56.5% | 5.38% | 19.5% | 7.8 nM | 60.6% | 65.3% | 63.3% |  |  |  |  |  |  |  |  |  |  | 
B4 | 86.2% | 97.3% | 97.8% | 23.7 nM | 89.1% | 88.5% | 90.3% |  |  |  |  |  |  |  |  |  |  | 
B5 | 82.8% | 97.1% | 97.7% | 24.7 nM | 87.4% | 87.5% | 87.9% |  |  |  |  |  |  |  |  |  |  | 
B6 | 88.5% | 97.8% | 98.2% | 21.6 nM | 91.5% | 88.8% | 91% |  |  |  |  |  |  |  |  |  |  | 
B7 | 69.5% | 92.8% | 96.4% | 32.6 nM | 77.9% | 84.4% | 81.3% | 68000 M⁻¹ s⁻¹ | 0.000128 s⁻¹ | 2.01 nM | 89100 M⁻¹ s⁻¹ | 1.65 nM | 46800 M⁻¹ s⁻¹ | 7.72e-05 s⁻¹ | 68000 M⁻¹ s⁻¹ | 1.83 nM | 0.000128 s⁻¹ | 0.000179 s⁻¹
